Assay results as given in article PMC12047440, “LINE-1 ribonucleoprotein condensates bind DNA to enable nuclear entry during mitosis” (Science Advances, 2024).
Several values for one entry are separate records, joined by “and”; a condition that tells them apart may be missing. Equal entries are not always repeated.

Legend:
ΔStammer-ORF1p (human) = experiment: mass photometry; purified ORF1p alone, landing on a glass coverslip; 300 nM ORF1p in 20 mM Hepes pH 7.5, 50 mM KCl, 1 mM MgCl2, 1 mM DTT; also a protein concentration series, a KCl series and 150 mM KCl; monomers to trimers, trimers to hexamers and higher-order oligomers
[1] = target: the molecule itself; experiment: as above
ORF1p WT [2] = target: T1, ORF1p WT (Homo sapiens, UniProt Q9UN81); experiment: mass photometry; one trimer per RNA; Anisotropy: 20 mM Hepes pH 7.5, 50 mM KCl, 1 mM MgCl2, 1 mM DTT, 1 nM 6-FAM oligo, temperature not stated; DNA curtains: 50, 150 or 300 mM KCl, RNP premix 1 min at room temperature; conditions: protein: recombinant; tags: tag removed, N-terminal G left; chain copies: 3
ORF1p WT [3] = target: T1, ORF1p WT; experiment: mass photometry; second peak, two trimers per RNA; Anisotropy: 20 mM Hepes pH 7.5, 50 mM KCl, 1 mM MgCl2, 1 mM DTT, 1 nM 6-FAM oligo, temperature not stated; DNA curtains: 50, 150 or 300 mM KCl, RNP premix 1 min at room temperature; conditions: protein: recombinant; tags: tag removed, N-terminal G left; chain copies: 3
ORF1p WT [4] = target: T1, ORF1p WT; experiment: mass photometry; two-trimer peak more prominent; Anisotropy: 20 mM Hepes pH 7.5, 50 mM KCl, 1 mM MgCl2, 1 mM DTT, 1 nM 6-FAM oligo, temperature not stated; DNA curtains: 50, 150 or 300 mM KCl, RNP premix 1 min at room temperature; conditions: protein: recombinant; tags: tag removed, N-terminal G left; chain copies: 3
ΔStammer-ORF1p = ΔStammer-ORF1p (Homo sapiens, UniProt Q9UN81 1-338, del91-93); experiment: fluorescence anisotropy; 50 mM KCl; 20 mM Hepes pH 7.5, 50 mM KCl (150 or 300 mM in Fig. S1D rows), 1 mM MgCl2, 1 mM DTT; 1 nM 6-FAM oligo; temperature not stated; conditions: protein: recombinant, tags: tag removed by TEV, N-terminal G left, chain copies: 3
ORF1p WT [5] = target: T2, ORF1p WT (Homo sapiens, UniProt Q9UN81 1-338); experiment: as above; conditions: protein: recombinant, tags: tag removed, N-terminal G left, chain copies: 3
His-TEV-ORF1p = target: T3, His-TEV-ORF1p (Homo sapiens, UniProt Q9UN81 1-338); experiment: as above; conditions: protein: recombinant, tags: uncleaved N-terminal His-TEV, C-terminal ybbR, chain copies: 3
T3 chain: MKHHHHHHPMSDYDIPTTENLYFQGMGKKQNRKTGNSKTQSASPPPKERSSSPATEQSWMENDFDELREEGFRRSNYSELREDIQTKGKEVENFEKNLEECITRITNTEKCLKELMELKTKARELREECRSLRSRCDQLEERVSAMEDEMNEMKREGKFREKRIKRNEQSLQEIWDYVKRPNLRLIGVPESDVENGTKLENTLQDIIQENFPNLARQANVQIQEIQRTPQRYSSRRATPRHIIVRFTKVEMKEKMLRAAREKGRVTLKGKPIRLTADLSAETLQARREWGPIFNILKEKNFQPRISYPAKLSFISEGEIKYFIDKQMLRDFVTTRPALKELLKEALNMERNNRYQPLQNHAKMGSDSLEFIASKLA

K3A/K4A-ORF1p = K3A/K4A-ORF1p (Homo sapiens, UniProt Q9UN81 1-338, K3A;K4A); experiment: as above; conditions: protein: recombinant, tags: tag removed, N-terminal G left, chain copies: 3
ORF1p WT [6] = target: T2, ORF1p WT; experiment: fluorescence anisotropy; 300 mM KCl; 20 mM Hepes pH 7.5, 50 mM KCl (150 or 300 mM in Fig. S1D rows), 1 mM MgCl2, 1 mM DTT; 1 nM 6-FAM oligo; temperature not stated; conditions: protein: recombinant; tags: tag removed, N-terminal G left; chain copies: 3; label: 5' 6-FAM (anisotropy); unstructured
ORF1p WT [7] = target: T2, ORF1p WT; experiment: fluorescence anisotropy; 150 mM KCl; 20 mM Hepes pH 7.5, 50 mM KCl (150 or 300 mM in Fig. S1D rows), 1 mM MgCl2, 1 mM DTT; 1 nM 6-FAM oligo; temperature not stated; conditions: protein: recombinant; tags: tag removed, N-terminal G left; chain copies: 3; label: 5' 6-FAM (anisotropy); unstructured
[8] = label: 5' 6-FAM (anisotropy), unstructured
[9] = label: 5' 6-FAM on strand 1 (anisotropy), blunt

ΔStammer-ORF1p (natural protein)
stoichiometry N (ΔStammer-ORF1p (human)): 6

B1: WT-ORF1p (LINE-1 ORF1 protein, Homo sapiens) (natural protein, human)
chain: GMGKKQNRKTGNSKTQSASPPPKERSSSPATEQSWMENDFDELREEGFRRSNYSELREDIQTKGKEVENFEKNLEECITRITNTEKCLKELMELKTKARELREECRSLRSRCDQLEERVSAMEDEMNEMKREGKFREKRIKRNEQSLQEIWDYVKRPNLRLIGVPESDVENGTKLENTLQDIIQENFPNLARQANVQIQEIQRTPQRYSSRRATPRHIIVRFTKVEMKEKMLRAAREKGRVTLKGKPIRLTADLSAETLQARREWGPIFNILKEKNFQPRISYPAKLSFISEGEIKYFIDKQMLRDFVTTRPALKELLKEALNMERNNRYQPLQNHAKM
notes: first printed residue of the construct, before the first methionine of ORF1p; left after TEV protease digestion; LINE-1 ORF1p, human, 338 residues as printed; also called pLH2087; source: E. coli BL21(DE3), purified as described previously (19); not shown: His6, N-terminal, cleaved
stoichiometry N [1]: 6 and 3

B2: K3A/K4A-ORF1p (natural protein, human)
chain: GMGAAQNRKTGNSKTQSASPPPKERSSSPATEQSWMENDFDELREEGFRRSNYSELREDIQTKGKEVENFEKNLEECITRITNTEKCLKELMELKTKARELREECRSLRSRCDQLEERVSAMEDEMNEMKREGKFREKRIKRNEQSLQEIWDYVKRPNLRLIGVPESDVENGTKLENTLQDIIQENFPNLARQANVQIQEIQRTPQRYSSRRATPRHIIVRFTKVEMKEKMLRAAREKGRVTLKGKPIRLTADLSAETLQARREWGPIFNILKEKNFQPRISYPAKLSFISEGEIKYFIDKQMLRDFVTTRPALKELLKEALNMERNNRYQPLQNHAKM
notes: first printed residue of the construct, before the first methionine of ORF1p; left after TEV protease digestion; LINE-1 ORF1p, human, with the N-terminal basic patch mutated; also called pLH2075; source: E. coli BL21(DE3), purified as described previously (19); not shown: His6, N-terminal, cleaved
binding result [1]: binds

B3: 60 nt RNA (ssRNA)
RNA: GGGCGAAUUGGGUACCGGGCCCCCCCUCGAGGCCGGUAGAGGUGUGGUCAAUAAGAGCGA
binding result (ORF1p WT [2]): binds

B4: 90 nt RNA (ssRNA)
RNA: GGGCGAAUUGGGUACCGGGCCCCCCCUCGAGGCCGGUAGAGGUGUGGUCAAUAAGAGCGACCUCAUACUAUACCUGAGAAAGCAACCUGA
binding result (ORF1p WT [3]): binds

B5: 120 nt RNA (ssRNA)
RNA: GGGCGAAUUGGGUACCGGGCCCCCCCUCGAGGCCGGUAGAGGUGUGGUCAAUAAGAGCGACCUCAUACUAUACCUGAGAAAGCAACCUGACCUACAGGAAAGAGUUACUCAAGAAUAAGA
binding result (ORF1p WT [4]): binds

ACCAUCAUCAAAGACCAAAAGUAGAUAAAA (ssRNA) [30 nt RNA]
Kd (ΔStammer-ORF1p; [8]): 8.06 nM | Kd (ORF1p WT [5]; [8]): 3.89 nM | Kd (His-TEV-ORF1p; [8]): 17.7 nM | Kd (K3A/K4A-ORF1p; [8]): 11.1 nM | Kd (ORF1p WT [6]): 11.9 nM | Kd (ORF1p WT [7]): 11.3 nM

ACCATCATCAAAGACCAAAAGTAGATAAAA (ssDNA) [30 nt ssDNA]
Kd (ORF1p WT [5]; label: 5' 6-FAM): 8.27 nM

B6: 30 bp dsDNA (dsDNA)
DNA 1: ACCATCATCAAAGACCAAAAGTAGATAAAA
DNA 2: TTTTATCTACTTTTGGTCTTTGATGATGGT
Kd (ΔStammer-ORF1p; [9]): 26.6 nM | Kd (ORF1p WT [5]; [9]): 18.9 nM | Kd (His-TEV-ORF1p; [9]): 28.6 nM | Kd (K3A/K4A-ORF1p; [9]): 21.8 nM

B7: 30 bp RNA/DNA hybrid (DNA:RNA)
RNA: ACCAUCAUCAAAGACCAAAAGUAGAUAAAA
DNA: TTTTATCTACTTTTGGTCTTTGATGATGGT
Kd (ORF1p WT [5]; label: 5' 6-FAM on RNA, blunt): 4.68 nM

AAAAAAAAAAAAAAAAAAAAAAAAAAAAAA (ssRNA) [30 nt poly(A)]
Kd (ORF1p WT [5]; label: 5' 6-FAM): 6.01 nM
